Like-named read-outs stand apart in the source and are kept apart here.
Columns and labels:
Assay in all cases: SPR
RPL12 unmodified peptide [1] = target: T1, RPL12 unmodified peptide (D. melanogaster, UniProt Q9W1B9)
[2] = target: T2, RPL12 peptide trimethylated on lysine 3 (D. melanogaster, UniProt Q9W1B9, trimethyl-lysine at 3 (K3me3))
[3] = target: RPL12 peptide dimethylated on lysine 3 (D. melanogaster, UniProt Q9W1B9, dimethyl-lysine at 3 (K3me2))
RPL12 unmodified peptide [4] = target: T1, RPL12 unmodified peptide; remark: listed apart in the source
[5] = target: T2, RPL12 peptide trimethylated on lysine 3; remark: listed apart in the source

Kd (RPL12 unmodified peptide [1]) [µM] | Kd [2] [µM] | Kd [3] [µM] | koff [3] [s⁻¹] | Kd (RPL12 unmodified peptide [4]) [µM] | koff (RPL12 unmodified peptide [4]) [s⁻¹] | koff [5] [s⁻¹] | Binder
> 1000 | 292 |  |  |  |  |  | GST-HP1CD (HP1 chromodomain fused to GST) (domain or fragment) not shown
 |  | 238 | 0.00099 | 624 | 0.00076 | 0.00082 | GST-CortoCD (Corto chromodomain fused to GST) (domain or fragment) TASSNSNAAPAPSPQKDYSIPLHVDCSVEYELPNQPKPPAGQRVEPLLMIHPCYFRKMESQRRSPFVNNMHATARAV

From article PMC3469418 (2012)
